# From patent US20190033295A1 (MEDICINAL BIOCONVERGENCE RESEARCH CENTER, published 2019)
# B1: AIMP2 (other, UniProt Q13155 1-320, looked up)
# chain: MPMYQVKPYHGGGAPLRVELPTCMYRLPNVHGRSYGPAPGAGHVQEESNLSLQALESRQDDILKRLYELKAAVDGLSKMIQTPDADLDVTNIIQADEPTTLTTNALDLNSVLGKDYGALKDIVINANPASPPLSLLVLHRLLCEHFRVLSTVHTHSSVKSVPENLLKCFGEQNKKQPRQDYQLGFTLIWKNVPKTQMKFSIQTMCPIEGEGNIARFLFSLFGQKHNAVNATLIDSWVDIAIFQLKEGSSKEKAAVFRSMNSALGKSPWLAGNELTVADVVLWSVLQQIGGCSVTVPANVQRWMRSCENLAPFNTALKLLK
# notes: Endogenous protein in H460 cell lysate; also called p38/JTV-1
# B2: strep-AIMP2 (other, UniProt Q13155 1-320, looked up)
# chain: B1 chain
# notes: Overexpressed in 293T cells; not shown: Strep tag from the pEXPR-IBA5 vector
# B3: AIMP2-DX2 protein (other)
# chain: MPMYQVKPYHGGGAPLRVELPTCMYRLPNVHGRSYGPAPGAGHVQDYGALKDIVINANPASPPLSLLVLHRLLCEHFRVLSTVHTHSSVKSVPENLLKCFGEQNKKQPRQDYQLGFTLIWKNVPKTQMKFSIQTMCPIEGEGNIARFLFSLFGQKHNAVNATLIDSWVDIAIFQLKEGSSKEKAAVFRSMNSALGKSPWLAGNELTVADVVLWSVLQQIGGCSVTVPANVQRWMRSCENLAPFNTALKLLK
# notes: Untagged AIMP2-DX2: endogenous in H460 cells (IP with Hsp70 antibody) and the purified protein flowed in SPR
# B4: RFP-AIMP2-DX2 (other)
# chain: B3 chain
# notes: Overexpressed in 293T cells; order of the parts as in the printed name; not shown: RFP
# B5: Strep-AIMP2-DX2 (other)
# chain: B3 chain
# notes: Overexpressed in 293T cells; The tag is put first as in the printed name; also called Strep-DX2; exogenous AIMP2-DX2; not shown: Strep tag from the pEXPR-IBA5 vector
# Experiments:
# HSP70 protein [1] = target: T1, HSP70 protein (human, UniProt P0DMV8 1-641, limits assumed); test: IP of H460 cell lysate with Hsp70 antibody, western blot
# T1 construct: Untagged HSP70: endogenous in H460 and 293T cells (co-IP, western blot with HSP70 antibody) and the purified protein fixed on the SPR chip; The construct of the purified protein is not described; also called heat shock protein 70; endogenous HSP70
# Procedure: H460 cells were treated with […] (EGF (Peprotech)) for 30 minutes, and then lysed with IP buffer (50 mM Tris (pH7.4), 100 mM NaCl, 10% Glycerol, 1 mM EDTA, 0.5% TritonX-100, PBS) at 4° C. for 30 minutes. […] Actin (Sigma) means loading control, and WCL means whole cell lysate.
# HSPA5 = target: T2, HSPA5 (UniProt P11021 19-654); test: strep-tag column pull-down from 293T lysate, LC-mass spectrometry
# T2 construct: Identified by mass spectrometry of tryptic peptides
# Procedure: (§1) Separated proteins were degraded to their peptide levels by in-gel digestion using trypsin (Hyclone), and these peptides were analyzed by LC-mass spectrometry (Thermo) (FIG. 1A).
# (§2) Cell lysis was performed by incubating at 4° C. for 30 min with an appropriate amount of lysis buffer (50 mM Tris(pH7.4), 100 mM NaCl, 10% Glycerol, 1 mM EDTA, 0.5% TritonX-100, PBS). And, lysed cell lysate was centrifuged at 13,200 rpm for 15 minutes. After […] the supernatant from the cell lysate, the supernatant was passed through a strep-tag column (thermo). After passing the supernatant, the proteins bound to the column were eluted by using elution buffer, and then the collected proteins were separated by SDS-PAGE.
# HSPA9 = target: T3, HSPA9 (UniProt P38646 47-679); test: as above
# T3 construct: Identified by mass spectrometry of tryptic peptides
# Procedure: as §1, §2
# HSPA2 = target: T4, HSPA2 (UniProt P54652 1-639); test: as above
# T4 construct: Identified by mass spectrometry of tryptic peptides
# Procedure: as §1, §2
# HSPA1L = target: T5, HSPA1L (UniProt P34931 1-641); test: as above
# T5 construct: Identified by mass spectrometry of tryptic peptides
# Procedure: as §1, §2
# GFP-HSP70 = target: T6, GFP-HSP70 (human, UniProt P0DMV8 1-641); test: confocal microscopy of 293T cells overexpressing both
# T6 construct: Overexpressed in 293T or H460 cells; order of the parts as in the printed name; also called GFP-HSP70 full; not shown: GFP
# Procedure: After EGF treatment, the cells were washed 3 times with cold PBS, and were fixed with cold methanol for 10 minutes. After fixation, the cells were washed 3 times with cold PBS, and nuclei were stained with DAPI (Invitrogen) solution. After staining, each fluorescence was observed using confocal microscopy.
# HSP90B1 = target: T7, HSP90B1 (UniProt P14625 22-803); test: strep-tag column pull-down from 293T lysate, LC-mass spectrometry
# T7 construct: Identified by mass spectrometry of tryptic peptides
# Procedure: as §1, §2
# HSP70 protein [2] = target: T1, HSP70 protein; test: strep-tag column IP of 293T lysate overexpressing Strep-AIMP2-DX2, western blot
# Procedure: After the cells were lysed in the same manner as described above, IP was performed using a Strep-tag column (GE Helathcare).
# T1 sequence (P0DMV8 whole entry): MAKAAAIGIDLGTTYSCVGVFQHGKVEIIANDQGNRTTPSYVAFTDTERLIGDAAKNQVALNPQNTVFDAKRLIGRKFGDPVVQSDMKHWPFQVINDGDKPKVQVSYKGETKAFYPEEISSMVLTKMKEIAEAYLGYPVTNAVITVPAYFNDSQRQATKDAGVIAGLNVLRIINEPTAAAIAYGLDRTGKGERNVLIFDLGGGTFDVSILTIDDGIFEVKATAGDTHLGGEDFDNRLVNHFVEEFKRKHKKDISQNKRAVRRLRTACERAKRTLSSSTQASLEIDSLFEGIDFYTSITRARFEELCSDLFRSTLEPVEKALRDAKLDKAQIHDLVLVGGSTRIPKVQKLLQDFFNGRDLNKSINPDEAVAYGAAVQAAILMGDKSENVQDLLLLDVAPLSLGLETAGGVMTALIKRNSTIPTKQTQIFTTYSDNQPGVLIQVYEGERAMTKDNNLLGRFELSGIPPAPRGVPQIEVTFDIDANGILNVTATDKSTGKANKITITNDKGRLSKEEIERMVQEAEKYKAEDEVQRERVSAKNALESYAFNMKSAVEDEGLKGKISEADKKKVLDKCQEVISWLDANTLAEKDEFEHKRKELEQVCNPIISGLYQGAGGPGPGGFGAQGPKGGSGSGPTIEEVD
# T4 sequence (P54652 whole entry): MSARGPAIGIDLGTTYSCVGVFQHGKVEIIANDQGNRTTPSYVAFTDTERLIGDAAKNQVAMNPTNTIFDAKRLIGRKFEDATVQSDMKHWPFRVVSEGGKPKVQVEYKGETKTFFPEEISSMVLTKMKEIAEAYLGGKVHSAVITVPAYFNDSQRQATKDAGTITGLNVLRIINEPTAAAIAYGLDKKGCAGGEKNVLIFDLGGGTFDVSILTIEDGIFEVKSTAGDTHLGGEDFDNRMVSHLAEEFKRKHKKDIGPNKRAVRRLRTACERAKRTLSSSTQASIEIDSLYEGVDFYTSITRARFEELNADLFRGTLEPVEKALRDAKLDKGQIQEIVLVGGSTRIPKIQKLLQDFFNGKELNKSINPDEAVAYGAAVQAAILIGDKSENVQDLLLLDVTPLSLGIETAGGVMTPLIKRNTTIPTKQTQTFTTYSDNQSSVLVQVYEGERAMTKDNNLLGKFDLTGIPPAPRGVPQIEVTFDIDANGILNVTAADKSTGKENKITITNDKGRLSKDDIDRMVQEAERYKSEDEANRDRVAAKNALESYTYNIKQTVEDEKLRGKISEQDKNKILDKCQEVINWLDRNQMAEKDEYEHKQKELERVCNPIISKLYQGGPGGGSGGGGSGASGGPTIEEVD
# T7 sequence (P14625 22-803 limits assumed): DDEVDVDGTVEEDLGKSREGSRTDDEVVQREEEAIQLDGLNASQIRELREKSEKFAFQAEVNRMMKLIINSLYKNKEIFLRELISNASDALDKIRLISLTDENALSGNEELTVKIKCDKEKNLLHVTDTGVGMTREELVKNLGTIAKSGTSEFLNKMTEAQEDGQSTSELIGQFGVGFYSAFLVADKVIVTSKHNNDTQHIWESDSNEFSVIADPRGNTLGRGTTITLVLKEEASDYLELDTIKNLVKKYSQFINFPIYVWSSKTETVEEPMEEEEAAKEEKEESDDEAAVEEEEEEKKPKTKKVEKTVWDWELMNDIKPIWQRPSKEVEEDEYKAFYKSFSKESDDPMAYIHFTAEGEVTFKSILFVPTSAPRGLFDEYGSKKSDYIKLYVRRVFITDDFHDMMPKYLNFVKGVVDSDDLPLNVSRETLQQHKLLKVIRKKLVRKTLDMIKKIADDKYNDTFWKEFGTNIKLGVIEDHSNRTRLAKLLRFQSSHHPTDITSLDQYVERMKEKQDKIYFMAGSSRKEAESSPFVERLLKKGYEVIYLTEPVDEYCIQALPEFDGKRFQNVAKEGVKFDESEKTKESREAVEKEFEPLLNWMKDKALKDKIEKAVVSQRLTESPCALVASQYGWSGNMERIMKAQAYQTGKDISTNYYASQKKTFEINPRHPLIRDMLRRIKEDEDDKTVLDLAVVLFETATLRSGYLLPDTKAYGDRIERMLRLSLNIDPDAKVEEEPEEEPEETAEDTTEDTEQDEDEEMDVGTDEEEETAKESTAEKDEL
# T5 sequence (P34931 whole entry): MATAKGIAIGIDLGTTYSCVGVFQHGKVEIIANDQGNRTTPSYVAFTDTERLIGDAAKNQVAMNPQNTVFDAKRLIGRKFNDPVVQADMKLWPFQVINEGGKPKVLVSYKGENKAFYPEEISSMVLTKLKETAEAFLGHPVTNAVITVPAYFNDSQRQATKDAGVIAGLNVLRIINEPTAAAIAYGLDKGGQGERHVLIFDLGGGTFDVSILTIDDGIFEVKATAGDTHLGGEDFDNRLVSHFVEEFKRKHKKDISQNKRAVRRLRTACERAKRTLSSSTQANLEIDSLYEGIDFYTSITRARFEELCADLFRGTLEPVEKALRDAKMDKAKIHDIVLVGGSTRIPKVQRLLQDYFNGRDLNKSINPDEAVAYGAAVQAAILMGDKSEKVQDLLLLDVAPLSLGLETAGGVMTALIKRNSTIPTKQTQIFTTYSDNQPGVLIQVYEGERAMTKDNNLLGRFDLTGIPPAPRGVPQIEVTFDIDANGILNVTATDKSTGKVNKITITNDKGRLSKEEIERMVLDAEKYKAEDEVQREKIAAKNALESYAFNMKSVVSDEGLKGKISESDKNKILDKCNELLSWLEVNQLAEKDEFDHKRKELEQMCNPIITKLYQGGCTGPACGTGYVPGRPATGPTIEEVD
# T2 sequence (P11021 19-654 limits assumed): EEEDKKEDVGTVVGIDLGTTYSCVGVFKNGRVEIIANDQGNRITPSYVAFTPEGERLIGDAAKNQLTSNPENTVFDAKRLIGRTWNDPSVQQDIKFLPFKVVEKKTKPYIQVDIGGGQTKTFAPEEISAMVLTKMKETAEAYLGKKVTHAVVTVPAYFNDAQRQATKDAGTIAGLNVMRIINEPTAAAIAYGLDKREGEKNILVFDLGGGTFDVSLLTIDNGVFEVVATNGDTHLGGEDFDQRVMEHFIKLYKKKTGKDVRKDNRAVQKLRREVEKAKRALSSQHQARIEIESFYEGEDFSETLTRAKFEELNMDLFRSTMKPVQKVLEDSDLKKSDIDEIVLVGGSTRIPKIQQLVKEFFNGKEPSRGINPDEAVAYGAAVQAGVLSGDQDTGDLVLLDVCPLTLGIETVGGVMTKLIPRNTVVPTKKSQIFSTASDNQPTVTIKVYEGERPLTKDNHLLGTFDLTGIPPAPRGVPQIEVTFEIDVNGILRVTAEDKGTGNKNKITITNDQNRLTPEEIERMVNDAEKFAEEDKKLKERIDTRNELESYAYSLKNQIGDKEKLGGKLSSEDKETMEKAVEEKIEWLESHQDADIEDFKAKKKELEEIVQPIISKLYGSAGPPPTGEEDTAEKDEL
# T6 sequence (P0DMV8 whole entry): as the sequence (P0DMV8 whole entry) above
# T3 sequence (P38646 47-679 limits assumed): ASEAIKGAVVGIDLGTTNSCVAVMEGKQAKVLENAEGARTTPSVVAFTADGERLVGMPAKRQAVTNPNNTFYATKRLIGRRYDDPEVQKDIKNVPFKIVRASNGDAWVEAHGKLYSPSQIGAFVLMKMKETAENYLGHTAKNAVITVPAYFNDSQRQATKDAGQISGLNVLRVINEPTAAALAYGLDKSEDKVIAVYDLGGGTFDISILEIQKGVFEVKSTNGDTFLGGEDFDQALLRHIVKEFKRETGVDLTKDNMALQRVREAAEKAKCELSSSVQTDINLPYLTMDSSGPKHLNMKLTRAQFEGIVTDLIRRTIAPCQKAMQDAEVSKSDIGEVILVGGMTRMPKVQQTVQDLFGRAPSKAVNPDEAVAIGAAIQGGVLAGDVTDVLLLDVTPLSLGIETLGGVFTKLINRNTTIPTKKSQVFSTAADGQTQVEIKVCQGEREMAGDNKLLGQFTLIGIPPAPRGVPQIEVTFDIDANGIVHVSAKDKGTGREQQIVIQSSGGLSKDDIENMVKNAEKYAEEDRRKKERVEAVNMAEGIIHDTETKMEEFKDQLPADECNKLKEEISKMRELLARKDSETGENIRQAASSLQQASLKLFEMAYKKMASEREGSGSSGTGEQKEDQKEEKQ
binder,measurement,setting,value
B1,binding result,HSP70 protein [1],no binding
B2,binding result,HSPA5,no binding
same,binding result,HSPA9,no binding
same,binding result,HSPA2,no binding
same,binding result,HSPA1L,no binding
B3,binding result,HSP70 protein [1],binds
B4,binding result,GFP-HSP70,binds
B5,binding result,HSP90B1,no binding
same,binding result,HSP70 protein [2],binds
